Laboratory results published in the supplement of paper PMC10567573.

B1: ATE1 (parent)
chain: DYFPSEDFYRCGYCKNESGSRSNG

Variants of: B1
Assay: protein stability index of a GFP-peptide fusion (GPS, HEK-293T) (PSI 1-6); higher = more stable
Details: c terminus: a fixed tail appended
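Note: lentivirally expressed fusions sorted by FACS into six bins by GFP to DsRed ratio, PSI derived from sequencing read proportions per bin multiplied by bin number.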

Variant	protein stability index
DYFPSEDFYRCGYCKNESGSRHNG	2.01
DYFPSEDFYRCGYCKNESGSRDNG	2.6
DYFPSEDFYRCGYCKNESGSRMNG	3.37
DYFPSEDFYRCGYCKNESGSRENG	2.52
DYFPSEDFYRCGYCKNESGSRRNG	1.68
DYFPSEDFYRCGYCKNESGSRNNG	2.07
DYFPSEDFYRCGYCKNESGSRING	2.54
DYFPSEDFYRCGYCKNESGSRYNG	2.42
DYFPSEDFYRCGYCKNESGSRCNG	2.17
DYFFSEDFYRCGYCKNESGSRSNG	1.43
DYFWSEDFYRCGYCKNESGSRSNG	1.08
DYFRSEDFYRCGYCKNESGSRSNG	1.79
DYFESEDFYRCGYCKNESGSRSNG	2.21
DYFHSEDFYRCGYCKNESGSRSNG	1.29
DYFPSEDFYRCGYCKNESRSRSNG	1.76
DYFPSEDFYRCGYCKNESCSRSNG	1.93
DYFPSEDFYRCGYCKNESYSRSNG	1.6
DYFPSEDFYRCGYCKNESMSRSNG	1.38
DYFPSEDFYRCGYCKNESESRSNG	2.52
DYFPSEDFYRCGYCKNESVSRSNG	2.14
DYFPSEDFYRCGYCKNESLSRSNG	2
DYFPSEDFQRCGYCKNESGSRSNG	2.14
DYFPSEDFHRCGYCKNESGSRSNG	1.82
DYFPSEDFLRCGYCKNESGSRSNG	2.01

Variant	protein stability index
DYFPSEDFARCGYCKNESGSRSNG	2.99
DYFPSEDFKRCGYCKNESGSRSNG	2.37
DYFPSEDFTRCGYCKNESGSRSNG	2.98
DYFPSEDFFRCGYCKNESGSRSNG	1.92
DYFPSEDFWRCGYCKNESGSRSNG	2.46
DYFPSEDFDRCGYCKNESGSRSNG	2.42
DYFPSEDFERCGYCKNESGSRSNG	2.43
DYFPSEDFPRCGYCKNESGSRSNG	2.57
DYFPSEDDYRCGYCKNESGSRSNG	2.44
DYFPSEDYYRCGYCKNESGSRSNG	1.93
DYFPSEDKYRCGYCKNESGSRSNG	2.49
DYFPSEDAYRCGYCKNESGSRSNG	2.32
DYFPSEDMYRCGYCKNESGSRSNG	2.56
DYFPSEDPYRCGYCKNESGSRSNG	3
DYFPSEDLYRCGYCKNESGSRSNG	2.19
DYFPSEDFYLCGYCKNESGSRSNG	1.69
DYFPSEDFYFCGYCKNESGSRSNG	1.98
DYFPSEDFYGCGYCKNESGSRSNG	2.35
DYFPSEDFYVCGYCKNESGSRSNG	3.04
DYFPSEDFYYCGYCKNESGSRSNG	2.99
DYFPSEDFYHCGYCKNESGSRSNG	1.82
DYFPSEDFYKCGYCKNESGSRSNG	2.44
DYFPSEDFYECGYCKNESGSRSNG	2.6
DYWPSEDFYRCGYCKNESGSRSNG	2.85

Variant	protein stability index
DYYPSEDFYRCGYCKNESGSRSNG	2.14
DYTPSEDFYRCGYCKNESGSRSNG	2.45
DYDPSEDFYRCGYCKNESGSRSNG	2.61
DYQPSEDFYRCGYCKNESGSRSNG	3.12
DYRPSEDFYRCGYCKNESGSRSNG	2.58
DYKPSEDFYRCGYCKNESGSRSNG	2.44
DYAPSEDFYRCGYCKNESGSRSNG	2.45
DYFPSEDFYRCGYCKNESGSWSNG	2.03
DYFPSEDFYRCGYCKNESGSGSNG	2.79
DYFPSEDFYRCGYCKNESGSISNG	1.79
DYFPSEDFYRCGYCKNESGSKSNG	2.61
DYFPSEDFYRCGYCKNESGSCSNG	2.83
DYFPSEDFYRCGYCKNESGSLSNG	1.58
DYFPSEDFYRCGYCKNESGSHSNG	2.19
DYFPSEDFYRCGYCKNESGSVSNG	2.5
DYFPSEDFYRCGYCKAESGSRSNG	3.01
DYFPSEDFYRCGYCKVESGSRSNG	1.74
DYFPSEDFYRCGYCKCESGSRSNG	1.47
DYFPSEDFYRCGYCKPESGSRSNG	2.23
DYFPSEDFYRCGYCKRESGSRSNG	2.1
DYFPSEDFYRCGYCKDESGSRSNG	2.79
AYFPSEDFYRCGYCKNESGSRSNG	2.3
HYFPSEDFYRCGYCKNESGSRSNG	2.58
YYFPSEDFYRCGYCKNESGSRSNG	3.1

Variant	protein stability index
SYFPSEDFYRCGYCKNESGSRSNG	2.15
DYFPSEDFYRCGRCKNESGSRSNG	2.23
DYFPSEDFYRCGKCKNESGSRSNG	3.5
DYFPSEDFYRCGICKNESGSRSNG	2.91
DYFPSEDFYRCGCCKNESGSRSNG	2.18
DYFPSEMFYRCGYCKNESGSRSNG	1.83
DYFPSERFYRCGYCKNESGSRSNG	1.93
DYFPSEPFYRCGYCKNESGSRSNG	2.71
DYFPSEYFYRCGYCKNESGSRSNG	2.85
DYFPSENFYRCGYCKNESGSRSNG	2.28
DYFPSEHFYRCGYCKNESGSRSNG	1.76
DYFPSESFYRCGYCKNESGSRSNG	2.24
DYFPSEGFYRCGYCKNESGSRSNG	1.85
DYFPSEWFYRCGYCKNESGSRSNG	1.7
DYFPSEFFYRCGYCKNESGSRSNG	1.17
DYFPSETFYRCGYCKNESGSRSNG	2.15
DYFPSEDFYRCGYCKNESGRRSNG	2.07
DYFPSEDFYRCGYCKNESGMRSNG	2.51
DYFPSEDFYRCGYCKNESGFRSNG	1.72
DYFPSEDFYRCGYCKNESGERSNG	2.5
DYFPSEDFYRCGYCKNESGVRSNG	2.25
DYFPSEDFYRCGYCKNESGGRSNG	2.53
